B1: human CRMP-4 (collapsin response mediator protein 4), full-length, residues 1-570 (natural protein)
chain: not shown
notes: CRMP-4 (DPYSL3), human, residues 1-570 of NP_001378.1; only residues 12-496/497 (crystal form A) or 12-499 (form B) are resolved in the electron density; The vector pNIC28-Bsa4 extends the coding region by 23 N-terminal residues (hexahistidine tag and TEV site); The tag was deliberately not cleaved for the full-length protein; Homotetramer in both crystal forms and in solution; also called …
B2: truncated human CRMP-4 (CRMP-4 ΔC), residues 13-490 (domain or fragment)
chain: not shown
notes: CRMP-4 (DPYSL3), human, residues 13-490 of NP_001378.1; The His tag was removed with TEV protease; A serine from the TEV cleavage site is visible in chains C and D of the structure; Judging from the primer, Ser-Met probably remains before residue 13; Tetramer in the crystal, lower oligomers in solution; also called CRMP-4 ΔC (13-490); source: E. coli BL21(DE3)pLysS, purified (Ni-NTA, TEV …)

Columns and labels:
[1] = target: the molecule itself; test: crystal structure; CRMP-4 (1-570) crystal form A, space group P21, twinned; 15%(w/v) PEG 6000, 100 mM Na HEPES pH 7.5, 100 mM KCl; protein 15 mg/ml; data at 100 K
[2] = target: the molecule itself; test: crystal structure; CRMP-4 ΔC (13-490), space group P21; 30%(w/v) PEG 3350, 100 mM sodium tartrate, 100 mM bis-tris propane pH 6.5; protein 18 mg/ml; data at 100 K

| Protein | stoichiometry N [1] | stoichiometry N [2] |
| --- | --- | --- |
| B1 | 4 | – |
| B2 | – | 4 |
